Positions count from the first letter of the chain named. In names and notes the source's numbering stands.
B1: CyPPO19 V165C + I408W + F360V: variant of CyPPO19 PPO protein (SEQ ID NO: 1) (protein)
chain: MSEVDVAIVGGGLSGLSLAWRLQQSAPQYSVVLLEASDRLGGNITTQTAEGFVWELGPNSFAPTPALLQLIAEVGLQSELIRGDRHLPRYIYWRGQLYPLQPTRPLALATSNLLSPWGKVRAALGALGFVPPYLGSGDESVNSFFRRHLGQEVAERLVAPFVSGCYAGDPQQLSAAAAFRRIAQLEKLGGGLIAGALHLRRQQAPKPKPPTSVQMRPGELGSFKEGLAALPRAIAQQLKAPIHLQTPVQEITPDPKGGYLLRSGEQTWRARSVVLATPAYQTAELVAPFQPAIARVLATIPYPTVACVVLAYPAGLGRSVRPGFGVLIPRSQGIRTLGTIWSSCLFPQRTPAGWQVFTSVIGGATDPDLASLSEEAIVQQVQQDLNRLLDLPAAKARLLGMKVWRRAWPQYMVGYPEQWQQVTHALSQTPGLFLCSNYAEGVALGDRVEHGNRTAAAVAAYLSGGQP
modifications: Synthetic_PPO of Thermosynechococcus elongatus PKUAC-SCTE542 (comprising GenBank No. CP032152.1)
B2: CyPPO19 V165C + I408W + F360T: variant of CyPPO19 PPO protein (SEQ ID NO: 1) (protein)
chain: B1 chain with V360T
modifications: Synthetic_PPO of Thermosynechococcus elongatus PKUAC-SCTE542 (comprising GenBank No. CP032152.1)
B3: CyPPO19 A167I + V305M + F360L: variant of CyPPO19 PPO protein (SEQ ID NO: 1) (protein)
chain: B1 chain with C165V, A167I, V305M, V360L, W408I
modifications: Synthetic_PPO of Thermosynechococcus elongatus PKUAC-SCTE542 (comprising GenBank No. CP032152.1)

Test system: PPO-deficient BT3 E. coli (ΔPPO)
Experiment: PPO-inhibiting herbicide tolerance test of PPO variants in E. coli (growth on herbicide-containing LB agar)
Type: cell-based
Settings: CyPPO19 variants in BT3 (ΔPPO) E. coli; LB agar with 0 to 2,000 μM herbicide, 37° C., dark, 16-20 hours
Procedure, shortened: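 PPO-deficient BT3 E. coli expressing each variant from pET303 were diluted to OD600=0.5, then 10-fold serially, and spotted on LB-ampicillin agar with 0 to 2,000 μM herbicide. After 16-20 h at 37° C. in the dark, growth relative to wild type was scored from '−' (equivalent) to '+' per 10-fold resistance, max '+++++'.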

| Molecule | tolerance level relative to wild type, Carfentrazone | tolerance level relative to wild type, Flumioxazin | tolerance level relative to wild type, Fomesafen | tolerance level relative to wild type, Oxyfluorfen | tolerance level relative to wild type, Saflufenacil | tolerance level relative to wild type, Sulfentrazone | tolerance level relative to wild type, Tiafenacil |
| --- | --- | --- | --- | --- | --- | --- | --- |
| B1 | + (‘+’ per each 10-fold resistance) | ++++ (‘+’ per each 10-fold resistance) | +++ (‘+’ per each 10-fold resistance) | ++++ (‘+’ per each 10-fold resistance) | ++++ (‘+’ per each 10-fold resistance) | +++ (‘+’ per each 10-fold resistance) | ++++ (‘+’ per each 10-fold resistance) |
| B2 | + (‘+’ per each 10-fold resistance) | ++++ (‘+’ per each 10-fold resistance) | + (‘+’ per each 10-fold resistance) | ++ (‘+’ per each 10-fold resistance) | ++++ (‘+’ per each 10-fold resistance) | +++ (‘+’ per each 10-fold resistance) | ++++ (‘+’ per each 10-fold resistance) |
| B3 | + (‘+’ per each 10-fold resistance) | +++++ (until ‘+++++’ as maximal resistance) | +++ (‘+’ per each 10-fold resistance) | +++ (‘+’ per each 10-fold resistance) | +++++ (until ‘+++++’ as maximal resistance) | +++++ (until ‘+++++’ as maximal resistance) | +++++ (until ‘+++++’ as maximal resistance) |
